From US20240150440A1 (LUMEN BIOSCIENCE, published 2024)
Values joined by “and” are separate entries in the source; they are usually repeats but may differ in a detail not shown here. Equal values may be shown once.

Experiments:
[1] = molecular target: T1, SARS-CoV-2 Alpha Variant RBD (SARS-CoV-2 Alpha variant); assay: ELISA, RBD coated
T1 construct: domain: RBD; coated on ELISA plates

[2] = molecular target: T2, SARS-CoV-2 Beta Variant RBD (SARS-CoV-2 Beta variant); assay: ELISA, RBD coated
T2 construct: domain: RBD; coated on ELISA plates

[3] = molecular target: T3, SARS-CoV-2 Gamma Variant RBD (SARS-CoV-2 Gamma variant); assay: ELISA, RBD coated
T3 construct: domain: RBD; coated on ELISA plates

[4] = molecular target: T4, SARS-CoV-2 spike protein on pseudotyped lentivirus (Wuhan Reference Pseudovirus) (SARS-CoV-2, UniProt P0DTC2 14-1273); assay: cell-based or functional assay
[5] = molecular target: T4, SARS-CoV-2 spike protein on pseudotyped …; assay: cell-based or functional assay; remark: listed apart in the source
[6] = molecular target: SARS-CoV-2 Gamma Variant spike protein on pseudotyped lentivirus (SARS-CoV-2 Gamma variant); assay: cell-based or functional assay
[7] = molecular target: T5, SARS-CoV-2 Delta Variant RBD (SARS-CoV-2 Delta variant); assay: ELISA, RBD coated
T5 construct: domain: RBD; coated on ELISA plates

[8] = molecular target: T4, SARS-CoV-2 spike protein on pseudotyped …; assay: cell-based or functional assay; remark: listed apart in the source
[9] = molecular target: T4, SARS-CoV-2 spike protein on pseudotyped …; assay: cell-based or functional assay; remark: listed apart in the source

Binder | EC50 [1] [nM] | EC50 [2] [nM] | EC50 [3] [nM] | infectivity % under 10 ug/mL VHH treatment [4] [%] | Pseudovirus neutralization IC50 [5] | Pseudovirus neutralization IC50 [6] [nM] | EC50 [7] [nM] | Pseudovirus inhibition IC50 [Cont. 1] [8] [nM] | Pseudovirus inhibition IC50 [Cont. 6] [9] [nM] | Pseudovirus inhibition IC50 (second row with the same construct name) [Cont. 6] [9] [nM]
PP1102 MBP-5HVZ-PAPA-RN-17-H6 (VHH, Form: Dimer) VHH: QVQLVESGGGLVQPGGSLRLSCAASGSMYSRAVMHWFRQAPGKEREGVASIGRTGDSYYADSVKGRFTISRDNAKNTVYLQMNSLKPEDTAVYYCAADNLDVVYGNRYWGQGTQVTVSS | 1.55 | 2 | 1.26 | 40.9 | ~5110 nM | 21.5 | – | – | – | –
PP1154 MBP-5HVZ-PAPA-R5d-G1-H6 (VHH, Form: Dimer) VHH: QVQLVESGGGLVQPGGSLRLSCAASGSIFGINDVHWFRQAPGKEREFVATITNGLSARYKDSVKGRFTISRDNAKNTVYLQMNSLKPEDTAVYYCAAQVYITTYELYDYWGQGTQVTVSS | 2.37 | 24.7 | 15.8 | 53.2 | 272 nM | – | 221 | – | – | –
PP1105 MBP-5HVZ-PAPA-RN-20-H6 (VHH, Form: Dimer) VHH: QVQLVESGGGLVQPGGSLRLSCAASGNYFEINKMHWFRQAPGKQREFVATIGSGGSTAYADSVKGRFTISRDNAKNTVYLQMNSLKPEDTAVYYCNALIYLADRRDGYYSYDYWGQGTQVTVSS | 1.41 | 26.6 | 15.4 | 79.8 | – | – | 36.6 | – | – | –
PP1153 MBP-5HVZ-PAPA-R5d-D4-H6 (VHH, Form: Dimer) VHH: QVQLVESGGGLVQPGGSLRLSCAASGSDFTINAMHWFRQAPGKQREFVATITSTSSTAYRDSVKGRFTISRDNAKNTVYLQMNSLKPEDTAVYYCAAFAVRDADTAGWTARDYWGQGTQVTVSS | 0.91 | – | – | 81.7 | – | 62.9 | 223 | – | – | –
PP1134 MBP-4B0F-PAPA-R2d-D3-H6 (VHH, Form: Heptamer) VHH: QVQLVESGGGLVQPGGSLRLSCAASGHIFSINNAAWVRQAPGKSREGVATIHSGGGTYYSDSVKGRFTISRDNAKNTVYLQMNSLKPEDTAVYYCNAEVSTGAGSRGRVSDVYWGQGTQVTVSS | – | – | – | 10.9 | 3.97 nM | – | – | 5.99 | – | –
PP1158 MPB-scTRP-PAPA-R2d-D3-H6 (VHH, Form: Trimer) VHH: QVQLVESGGGLVQPGGSLRLSCAASGHIFSINNAAWVRQAPGKSREGVATIHSGGGTYYSDSVKGRFTISRDNAKNTVYLQMNSLKPEDTAVYYCNAEVSTGAGSRGRVSDVYWGQGTQVTVSS | – | – | – | 28.8 | 27.4 nM | – | – | 123 | – | –
PP1181 R2d-D3-PP7-H6 (VHH) VHH: QVQLVESGGGLVQPGGSLRLSCAASGHIFSINNAAWVRQAPGKSREGVATIHSGGGTYYSDSVKGRFTISRDNAKNTVYLQMNSLKPEDTAVYYCNAEVSTGAGSRGRVSDVYWGQGTQVTVSS | – | – | – | 1.57 | 6.95 nM | – | – | 5.61 | – | –
PP899 MBP-5HVZ-R5a-B5-H6 (VHH, Form: Dimer) VHH: QVQLVESGGGLVQPGGSLRLSCAASGDDFIENAISWYRQAPGKGREWVAAVTLGGHSNYADSVKGRFTISRDNAKNTVYLQMNSLKPEDTAVYYCNYPVGIPAVAIDGRRSYGYWGQGTQVTVSS | – | – | – | 2.43 | 2.29 nM | – | – | – | 5.25 | –
PP1135 MBP-4B0F-PAPA-R5a-B7-H6 (VHH, Form: Heptamer) VHH: QVQLVESGGGLVQPGGSLRLSCAASGAFFSYGAIHWFRQAPGKQREEVAAITSGGSTGYADSVKGRFTISRDNAKNTVYLQMNSLKPEDTAVYYCNAGVVWLPSNAAYNLWGQGTQVTVSS | – | – | – | -0.03 | 0.533 nM | – | – | – | 2.13 | –
PP1159 MPB-scTRP-PAPA-R5a-B7-H6 (VHH, Form: Trimer) VHH: QVQLVESGGGLVQPGGSLRLSCAASGAFFSYGAIHWFRQAPGKQREEVAAITSGGSTGYADSVKGRFTISRDNAKNTVYLQMNSLKPEDTAVYYCNAGVVWLPSNAAYNLWGQGTQVTVSS | – | – | – | 17.7 | 31.9 nM | – | – | – | 7.98 | 215
PP900 MBP-5HVZ-R5a-F2-H6 (VHH, Form: Dimer) VHH: QVQLVESGGGLVQPGGSLRLSCAASGSISSIEAMSWFRQAPGKQREGVATMASGGDTSYADSVKGRFTISRDNAKNTVYLQMNSLKPEDTAVYYCAAQTYRPDTWGRYTFWGQGTQVTVSS | 34 | 709 | 340 | 18.3 | 29.6 nM | – | – | – | 59.3 | –
PP1101 MBP-5HVZ-PAPA-RN-16-H6 (VHH, Form: Dimer) VHH: QVQLVESGGGLVQPGGSLRLSCAASGADFSSNAMHWFRQAPGKAREFVASIDSDKSGYYADSVKGRFTISRDNAKNTVYLQMNSLKPEDTAVYYCNAYSGTDNYGYDYWGQGTQVTVSS | 1.77 | 115 | 51.5 | 91.8 | – | – | 42.6 | – | – | –
PP934 MBP-5HVZ-S3a-H2-H6 (VHH, Form: Dimer) VHH: QVQLVESGGGLVQPGGSLRLSCAASGAAFSKNALHWFRQAPGKGREWVASITSGSGTQYMDSVKGRFTISRDNAKNTVYLQMNSLKPEDTAVYYCAALAYSGGYDYWGQGTQVTVSS | 1.56 | 13.5 | 4.78 | – | – | 46300 | – | – | – | –
PP1106 MBP-5HVZ-PAPA-RN-21-H6 (VHH, Form: Dimer) VHH: QVQLVESGGGLVQPGGSLRLSCAASGLQTSDNAMHWFRQAPGKNRELVAGLTSGTSRNYGDSVKGRFTISRDNAKNTVYLQMNSLKPEDTAVYYCAAFPDVGDASSIGFVYWGQGTQVTVSS | 2.05 | 3.17 | 7.84 | 76.6 | – | 63.4 | – | – | – | –
PP1144 MBP-5HVZ-PAPA-R2c-F6-H6 (VHH, Form: Dimer) VHH: QVQLVESGGGLVQPGGSLRLSCAASGRILAANIVHWYRQAPGKEREGVAGITTGGSNYYSDSVKGRFTISRDNAKNTVYLQMNSLKPEDTAVYYCNALGLGSASGSYESWGQGTQVTVSS | – | – | – | 9.18 | 11.9 nM | – | – | 2.75 | – | –
PP1156 MPB-scTRP-PAPA-R2c-F6-H6 (VHH, Form: Trimer) VHH: QVQLVESGGGLVQPGGSLRLSCAASGRILAANIVHWYRQAPGKEREGVAGITTGGSNYYSDSVKGRFTISRDNAKNTVYLQMNSLKPEDTAVYYCNALGLGSASGSYESWGQGTQVTVSS | – | – | – | 18.1 | 36.8 nM | – | – | 63.8 | – | –
PP1132 MBP-4B0F-PAPA-R2c-F6-H6 (VHH, Form: Heptamer) VHH: QVQLVESGGGLVQPGGSLRLSCAASGRILAANIVHWYRQAPGKEREGVAGITTGGSNYYSDSVKGRFTISRDNAKNTVYLQMNSLKPEDTAVYYCNALGLGSASGSYESWGQGTQVTVSS | – | – | – | 2.65 | 4.14 nM | – | – | 5.66 | – | –
PP908 MBP-5HVZ-S2a-C4-H6 (VHH, Form: Dimer) VHH: QVQLVESGGGLVQPGGSLRLSCAASGFSESINATAWFRQAPGKQREGVAGLDGGGSDYYSDSVKGRFTISRDNAKNTVYLQMNSLKPEDTAVYYCAAQLTSSFRGYDFTPSNYDYWGQGTQVTVSS | 1.74 | 7.42 | 3.75 | 47.5 | 1620 nM | 63.1 | 2.15 | – | – | –
PP1145 MBP-5HVZ-PAPA-R2d-A6-H6 (VHH, Form: Dimer) VHH: QVQLVESGGGLVQPGGSLRLSCAASGSGASIGAMHWFRQAPGKGREWVASITSAGNTYYGDSVKGRFTISRDNAKNTVYLQMNSLKPEDTAVYYCNALAGANYESQWEEYNYWGQGTQVTVSS | 1.94 | 30.9 | 5.49 | 65.2 | 146 nM | – | 89 | – | – | –
PP1157 MPB-scTRP-PAPA-R2d-A6-H6 (VHH, Form: Trimer) VHH: QVQLVESGGGLVQPGGSLRLSCAASGSGASIGAMHWFRQAPGKGREWVASITSAGNTYYGDSVKGRFTISRDNAKNTVYLQMNSLKPEDTAVYYCNALAGANYESQWEEYNYWGQGTQVTVSS | – | – | – | 32.9 | 18.9 nM and 19.8 nM | – | – | 54.4 | – | –
PP1133 MBP-4B0F-PAPA-R2d-A6-H6 (VHH, Form: Heptamer) VHH: QVQLVESGGGLVQPGGSLRLSCAASGSGASIGAMHWFRQAPGKGREWVASITSAGNTYYGDSVKGRFTISRDNAKNTVYLQMNSLKPEDTAVYYCNALAGANYESQWEEYNYWGQGTQVTVSS | – | – | – | 48.1 | 186 nM | – | – | 180 | – | –
PP1104 MBP-5HVZ-PAPA-RN-19-H6 (VHH, Form: Dimer) VHH: QVQLVESGGGLVQPGGSLRLSCAASGIDDSIGAMHWFRQAPGKGREFVAALSGTGTTSYADSVKGRFTISRDNAKNTVYLQMNSLKPEDTAVYYCAAAFPAGGDYWGQGTQVTVSS | 1.09 | 44.9 | 29.5 | 73.8 | – | – | 295 | – | – | –
